Measured values as given in patent publication US20160002326A1 (AbbVie / Abbott, published 2016).

T1: mouse TNF (mouse, UniProt P06804 80-235)
T1 construct: also called murine TNF; rodent TNF (mouse)
T1 sequence (looked up): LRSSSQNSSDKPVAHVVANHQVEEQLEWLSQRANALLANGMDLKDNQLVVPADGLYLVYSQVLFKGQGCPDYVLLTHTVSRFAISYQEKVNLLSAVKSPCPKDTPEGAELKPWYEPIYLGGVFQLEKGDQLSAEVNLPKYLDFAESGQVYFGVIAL

T2: mouse IL-17 (mouse, UniProt Q62386 26-158, limits assumed)
T2 construct: also called mouse IL-17A; rodent IL-17 (mouse)
T2 sequence (looked up): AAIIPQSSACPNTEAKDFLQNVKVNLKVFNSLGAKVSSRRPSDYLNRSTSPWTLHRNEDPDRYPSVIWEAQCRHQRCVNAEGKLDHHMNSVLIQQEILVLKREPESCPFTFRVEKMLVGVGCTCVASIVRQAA

B1: anti-murine TNF antibody 8C11 (antibody, mouse IgG2c, V domains shown)
VH: EFQLQQSGPELVKPGASVRISCKASGYSFTDYNMNWVKQSNGKSLEWVGVINPNYGSSTYNQKFKGKATLTVDQSSSTAYMQLNSLTSEDSAVYYCARKWGQLGRGFFDVWGTGTTVTVSS
VL: QIVLSQSPAILSASPGEKVTMTCRASSSVSYMHWFQQKPGSSPKPWIYATSNLASGVPARFSGSGSGTSYSLTISRVEAEDAATYYCQQWSSSPLTFGAGTKLELKR
notes: also called 8C11 anti-TNF Ab; Anti-TNF
B2: 8C11/10F7M11 anti-TNF/IL-17 DVD-Ig protein (bispecific antibody, human IgG1, kappa, L234A L235A)
heavy: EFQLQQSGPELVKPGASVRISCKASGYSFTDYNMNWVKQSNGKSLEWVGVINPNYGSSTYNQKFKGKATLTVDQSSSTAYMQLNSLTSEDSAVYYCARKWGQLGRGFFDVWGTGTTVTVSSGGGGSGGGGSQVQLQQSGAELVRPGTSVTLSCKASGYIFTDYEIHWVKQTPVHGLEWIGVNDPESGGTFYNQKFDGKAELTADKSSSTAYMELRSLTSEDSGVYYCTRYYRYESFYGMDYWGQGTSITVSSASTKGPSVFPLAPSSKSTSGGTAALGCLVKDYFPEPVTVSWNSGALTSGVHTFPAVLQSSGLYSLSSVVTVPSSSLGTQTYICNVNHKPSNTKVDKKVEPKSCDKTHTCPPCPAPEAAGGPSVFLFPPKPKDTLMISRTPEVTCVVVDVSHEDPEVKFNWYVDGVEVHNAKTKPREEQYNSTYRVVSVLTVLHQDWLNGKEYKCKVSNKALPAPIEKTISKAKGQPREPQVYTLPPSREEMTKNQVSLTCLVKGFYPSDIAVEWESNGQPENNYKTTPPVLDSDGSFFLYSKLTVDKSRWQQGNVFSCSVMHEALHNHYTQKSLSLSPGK
light: QIVLSQSPAILSASPGEKVTMTCRASSSVSYMHWFQQKPGSSPKPWIYATSNLASGVPARFSGSGSGTSYSLTISRVEAEDAATYYCQQWSSSPLTFGAGTKLELKRGGSGGGGSGQIVLTQSPAIMSASPGEKVTMTCSASSSISYIYWFQQKPGTSPKRWIYATFELASGVPARFSGSGSGTSYSLTISSMEAEDAATYYCHQRSSYPWTFGGGSKLEIKRTVAAPSVFIFPPSDEQLKSGTASVVCLLNNFYPREAKVQWKVDNALQSGNSQESVTEQDSKDSTYSLSSTLTLSKADYEKHKVYACEVTHQGLSSPVTKSFNRGEC
notes: also called 8C11/10F7 DVD-Ig protein; anti-mouse TNF/IL-17 DVD-Ig

Legend:
mouse TNF = molecular target: T1, mouse TNF; assay: assay not stated (Table 5, 'Source And Binding Information')
mouse IL-17 = molecular target: T2, mouse IL-17; assay: as above

Row | Binder | IC50 (mouse TNF) [nM] | IC50 (mouse IL-17) [nM]
1 | B1 | 2 | –
2 | B2 | 2 | 0.13
